The record followed here is patent EP2283866A2.

For the experiment, the target named is human HER2 (ErbB2) (human) (UniProt P04626). Description: cell-based or functional assay.

In turn, “murine monoclonal antibody 4D5 (ATCC CRL 10463)” registered an inhibition of SK-BR-3 relative cell proliferation (crystal violet, 72 h, 5 ug/ml antibody) of 56% and a maximum inhibition of cell proliferation in SK-BR-3 cells of 66%.
